B1: TP5: Tn5 transposase-GSGAGA linker-APEX2 peroxidase fusion, C-terminal FLAG; amino acid SEQ ID NO: 31 (protein)
chain: MITSALHRAADWAKSVFSSAALGDPRRTARLVNVAAQLAKYSGKSITISSEGSKAMQEGAYRFIRNPNVSAEAIRKAGAMQTVKLAQEFPELLAIEDTTSLSYRHQVAEELGKLGSIQDKSRGWWVHSVLLLEATTFRTVGLLHQEWWMRPDDPADADEKESGKWLAAAATSRLRMGSMMSNVIAVCDREADIHAYLQDKLAHNERFVVRSKHPRKDVESGLYLYDHLKNQPELGGYQISIPQKGVVDKRGKRKNRPARKASLSLRSGRITLKQGNITLNAVLAEEINPPKGETPLKWLLLTSEPVESLAQALRVIDIYTHRWRIEEFHKAWKTGAGAERQRMEEPDNLERMVSILSFVAVRLLQLRESFTPPQALRAQGLLKEAEHVESQSAETVLTPDECQLLGYLDKGKRKRKEKAGSLQWAYMAIARLGGFMDSKRTGIASWGALWEGWEALQSKLDGFLAAKDLMAQGIKIGSGAGAGKSYPTVSADYQDAVEKAKKKLRGFIAEKRCAPLMLRLAFHSAGTFDKGTKTGGPFGTIKHPAELAHSANNGLDIAVRLLEPLKAEFPILSYADFYQLAGVVAVEVTGGPKVPFHPGREDKPEPPPEGRLPDPTKGSDHLRDVFGKAMGLTDQDIVALSGGHTIGAAHKERSGFEGPWTSNPLIFDNSYFTELLSGEKEGLLQLPSDKALLSDPVFRPLVDKYAADEDAFFADYAEAHQKLSELGFADADYKDDDDK
modifications: C-terminal FLAG
B2: Tn5-F: FLAG-tagged Tn5 transposase purified in-house, negative control probe; amino acid SEQ ID NO: 19 (protein)
chain: MITSALHRAADWAKSVFSSAALGDPRRTARLVNVAAQLAKYSGKSITISSEGSKAMQEGAYRFIRNPNVSAEAIRKAGAMQTVKLAQEFPELLAIEDTTSLSYRHQVAEELGKLGSIQDKSRGWWVHSVLLLEATTFRTVGLLHQEWWMRPDDPADADEKESGKWLAAAATSRLRMGSMMSNVIAVCDREADIHAYLQDKLAHNERFVVRSKHPRKDVESGLYLYDHLKNQPELGGYQISIPQKGVVDKRGKRKNRPARKASLSLRSGRITLKQGNITLNAVLAEEINPPKGETPLKWLLLTSEPVESLAQALRVIDIYTHRWRIEEFHKAWKTGAGAERQRMEEPDNLERMVSILSFVAVRLLQLRESFTPPQALRAQGLLKEAEHVESQSAETVLTPDECQLLGYLDKGKRKRKEKAGSLQWAYMAIARLGGFMDSKRTGIASWGALWEGWEALQSKLDGFLAAKDLMAQGIKIDYKDDDDK
modifications: FLAG tag

Experiments:
GM12878 nuclei = experiment: Peroxidase-mediated biotin labeling after transposition, western blot; assay type: biochemical, human
Experimental: Western blot. Whole cell lysate was generated by resuspending cells washed with 1×PBS in RIPA (Boston BioProducts) supplemented with 1× complete EDTA-free protease inhibitor cocktail (Roche). Cells were subject to sonication via a Sonic Dismembrator 100 (Fisher Scientific) at setting 2, with 3 pulses of 15 seconds on/off on ice. Lysates were clarified by centrifugation (15,000×g, 30 minutes, 4° C.) and their concentrations quantified with detergent-compatible Bradford assay (Thermo Fisher Scientific). All Western blots were run on NuPAGE 4-12% Bis-Tris protein gels (Thermo Fisher Scientific) and transferred to […] nitrocellulose membranes (GE Healthcare). Membranes were stained with Ponceau S, blocked with 3% milk in PBS-T, and incubated overnight with primary antibody and subsequently with secondary antibody after brief washing with PBS-T. Chemiluminescence was determined by applying ECL Western Blotting detection reagent (GE Healthcare) to membranes and imaging on an Amersham Imager 600 (GE Healthcare). Membranes were stripped with Restore PLUS Stripping Buffer (Thermo Fisher Scientific); streptavidin-HRP was inactivated with 15% hydrogen peroxide. […]

K562 nuclei = experiment: iDAPT protein labeling, western blot of labeled nuclear lysates; assay type: biochemical, human
Experimental: (§1) DNA and protein tagging by iDAPT. All iDAPT proteomic labeling assays were performed as described below unless indicated otherwise. 2.5 μmol MEDS-A/B, 2 μmol enzyme, and 1 μmol hemin chloride per channel were incubated at room temperature for 1 hour. 1e7 cells per sample were washed (500×g, 5 minutes, 4° C.), lysed and triturated in 100 μL LB1 (10 mM Tris-HCl pH 7.5, 10 mM NaCl, 3 mM MgCl2, 1% BSA, 0.01% digitonin, 0.1% Tween-20, 0.1% NP-40, and 1× cOmplete EDTA-free protease inhibitor cocktail [Roche]) for 3 minutes, and subsequently supplemented with an additional 1 mL of LB2 (10 mM Tris-HCl pH 7.5, 10 mM NaCl, 3 mM MgCl2, 1% BSA, 0.1% Tween-20, and 1× protease inhibitor). Nuclei were pelleted (500×g, 10 minutes, 4° C.), resuspended with tagmentation reaction mixture (20% dimethylformamide, 10 mM MgCl2, 20 mM Tris-HCl pH 7.5, 33% 1×PBS, 1% BSA, 0.01% digitonin, 0.1% Tween-20, 500 μM biotin-phenol, 1× protease inhibitor, and 2 pmol enzyme equivalent of enzyme:DNA:heme complex in a total volume of 500 μL), and incubated at 37° C. for 30 minutes with agitation on a thermomixer (1,000 rpm). 5 μL of tagmentation mix was saved for quality assessment as described above for ATAC-seq/iDAPT-seq sample preparation. The remaining nuclear suspension was then washed 2× with 1×PBS supplemented with 500 μM biotin-phenol, 1% BSA, 0.1% Tween-20, and 1× protease inhibitor (3000×g, 5 minutes, 4° C.) and labeled with 1 mM hydrogen peroxide and 500 μM biotin-phenol for 1 minute in 1×PBS with 1× protease inhibitor in a volume of 500 μL. Peroxidation reactions were quenched with 500 μL 2× quenching buffer (10 mM Trolox, 20 mM sodium ascorbate, 20 mM NaN3, and 1× protease inhibitor in 1×PBS). Labeled nuclei were then pelleted, washed with 1× quenching buffer, resuspended in 500 μL RIPA containing protease inhibitors, and frozen at −80° C. Lysates were thawed on ice, sonicated via a Sonic Dismembrator 100 (Fisher Scientific, setting 3, 15 seconds, 4 pulses), and incubated on ice for 30 minutes after the addition of 1 μL benzonase (EMD Millipore). Lysates were clarified by centrifugation (15,000×g, 20 minutes, 4° C.), quantified via the detergent-compatible Bradford assay (Thermo Fisher Scientific), and subjected to either Western blotting or quantitative mass spectrometry analyses as described below. For NB4 cell analysis, an additional endogenous peroxidase blocking step was added after nuclear extraction and before tagmentation: nuclei were resuspended in 500 μL 1×PBS containing 1% BSA, 0.03% hydrogen peroxide, and 0.1% NaN3 and incubated on ice for 30 minutes. Nuclei were pelleted and washed 4× with 1×PBS/1% BSA (3000×g, 5 minutes, 4° C.). Residual hydrogen peroxide was monitored by colorimetric assessment of supernatant via Quantofix peroxides test stick (Sigma).
(§2) Western blotting analysis. Whole cell or nuclear lysates were generated by resuspending cells or nuclei in RIPA (Boston BioProducts) supplemented with 1× cOmplete EDTA-free protease inhibitor cocktail (Roche). […] Lysates were clarified by centrifugation (15,000×g, 20 minutes, 4° C.) and their concentrations quantified via the detergent-compatible Bradford assay (Thermo Fisher Scientific). […] Membranes were blocked with 3% milk in PBS-T and incubated overnight with primary antibody and subsequently with secondary antibody after brief washing with PBS-T. Chemiluminescence was determined by applying ECL Western Blotting detection reagent (GE Healthcare) to membranes and imaging on an Amersham Imager 600 (GE Healthcare). […]

HT1080 cells = experiment: Co-immunofluorescence/ATAC-see analysis; assay type: cell-based, human
Experimental: Co-immunofluorescence/ATAC-see analysis. ATAC-see was performed similarly as previously described with slight modifications (Chen et al., Nat. Methods 13:1013-1020, 2016). Enzyme and transposon DNA were mixed at a 1:1.25 enzyme:MEDS-A/B-AF647 molar ratio and incubated at room temperature for 1 hour. Adherent cells were grown on glass coverslips (Fisher Scientific, 12-540A) until 80-90% confluent, washed with 1×PBS, fixed with 1% formaldehyde (Electron Microscopy Services) in 1×PBS for 10 minutes, and washed twice with ice-cold 1×PBS. Suspension cells were washed and resuspended with 1×PBS. 50,000 cells were added to poly-lysine slides and incubated at room temperature for 1 hour in a humidified chamber. An equal volume of 2% formaldehyde was added and incubated for 10 minutes, whereupon slides were washed twice with ice-cold 1×PBS. Immobilized cells were lysed by incubation with LB1 for 3 minutes followed by LB2 for 10 minutes at room temperature. Cells were then subject to tagmentation (20% dimethylformamide, 10 mM MgCl2, 20 mM Tris-HCl pH 7.5, 33% 1×PBS, 0.01% digitonin, 0.1% Tween-20, and either 80 pmol enzyme equivalent of enzyme:DNA complex in a total volume of 100 μL for adherent cells or 10 pmol enzyme equivalent of enzyme:DNA complex in a total volume of 50 μL for suspension cells) for 30 minutes at 37° C. in a humidified chamber. Subsequently, cells were washed with 50 mM EDTA and 0.01% SDS in 1×PBS three times for 15 minute each at 55° C., lysed for 10 minutes with 0.5% Triton X-100 in 1×PBS at room temperature, and blocked with 1% BSA and 10% goat serum in PBS-T for 1 hour in a humidified chamber. Primary antibody was added to slides in 1% BSA/PBS-T and incubated at 4° C. overnight; slides were then washed and subjected to secondary antibody staining for 1 hour. Slides were washed with PBS-T three times for 15 minutes each, stained with DAPI (Sigma, 1 μg/mL) for 1 minute, washed with PBS for 10 minutes, and mounted with Fluorescence Mounting Medium (Dako). Confocal microscopy images were taken with an LSM 880 Axio Imager 2 at 63× magnification (Zeiss). Images were processed with Fiji/ImageJ v2.0.0.
Primary antibodies used were anti-RNA polymerase II CTD repeat YSPTSPS (phospho S2) (rabbit, Abcam ab5095, 1:500), anti-H3K27Ac (rabbit, Abcam ab4729, 1:500), anti-H3K9me3 (rabbit, Abcam ab8898, 1:500), anti-CCDCl2 (rabbit, Atlas Antibodies HPA060530, 1:200), anti-SNRPA (mouse, 3F9-1F7, Sigma-Aldrich WH0006626M1, 1:100). […]
Quantitative image analyses were performed with CellProfiler v3.1.5. […] Pearson correlation coefficients were determined by comparing ATAC-see pixel intensities with corresponding immunofluorescence intensity values within each ROI to assess the nucleus-to-nucleus variation in colocalization. […]

HEK293T nuclei = experiment: iDAPT protein labeling, western blot of labeled nuclear lysates; assay type: biochemical, human; details: extracted HEK293T nuclei
Experimental: as §1, §2

Row | Molecule | biotinylation signal (streptavidin) (GM12878 nuclei) | biotin labeling (K562 nuclei) | ATAC-see correlation with H3K9me3 immunofluorescence (HT1080 cells; marker of transcriptionally inactive chromatin) | ATAC-see correlation with H3K27Ac and RNAPII S2P immunofluorescence signal (HT1080 cells; markers of transcriptionally active chromatin) | peroxidase-dependent biotin signal (HEK293T nuclei)
1 | B1 | highest signals | highest levels of labeling |  |  | 
2 | B2 |  |  | similarly poor correlations | similarly positive correlations | low signal
